From PMC4558368

Molecular target: Extracellular region of FcγRIIIa (residues 19-193, V158 allotype) (UniProt P08637)
Test: SPR

Substance	Kd [µM]
Human IgG1 Fc D265A (glycosylated variant) (domain or fragment)	> 50
Human IgG1 Fc T299A (aglycosylated variant) (domain or fragment)	> 50
